Holding throughout (assay): fluorescence fluctuation spectroscopy
Assay [1] addresses AF568-labelled HIV-1 capsid particles co-assembled from CA [change] and CA [change]-AF568 (HIV-1).
In assay [2] the target is Full-length GFP-CPSF6 (isoform 2; cell-free expressed, N-terminal GFP tag).
For assay [3], the target named is HIV-1 capsid particles self-assembled from CA [change] (disulfide cross-linked cones and tubes) (HIV-1).

The record followed here is doi:10.1101/2020.11.13.382242.

“And” between values parts separate entries of the source, which are not always exact repeats. Identical values can stand only once.

Sequence of Full-length GFP-CPSF6 (isoform 2; cell-free expressed, N-terminal GFP tag) (Q16630 whole entry, canonical isoform): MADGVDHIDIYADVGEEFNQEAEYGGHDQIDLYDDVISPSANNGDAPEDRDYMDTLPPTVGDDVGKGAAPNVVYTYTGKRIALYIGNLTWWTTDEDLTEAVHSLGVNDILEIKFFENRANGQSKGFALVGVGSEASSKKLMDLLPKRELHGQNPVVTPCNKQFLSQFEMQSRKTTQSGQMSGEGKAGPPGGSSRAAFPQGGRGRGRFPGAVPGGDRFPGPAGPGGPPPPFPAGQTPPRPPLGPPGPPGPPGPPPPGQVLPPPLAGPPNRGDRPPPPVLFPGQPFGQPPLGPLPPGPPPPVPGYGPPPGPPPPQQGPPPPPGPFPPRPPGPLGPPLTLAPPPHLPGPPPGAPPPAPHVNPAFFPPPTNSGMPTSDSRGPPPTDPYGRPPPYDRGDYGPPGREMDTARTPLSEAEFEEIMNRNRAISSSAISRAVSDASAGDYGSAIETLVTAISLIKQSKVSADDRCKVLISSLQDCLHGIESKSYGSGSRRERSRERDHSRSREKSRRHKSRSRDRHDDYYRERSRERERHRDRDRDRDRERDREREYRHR

Consider “Untagged recombinant CypA labelled with Alexa Fluor 488-C5 maleimide (from UniProt P62937 1-165) (natural protein)”, for which, in assay [1], the Kd (usually the constant that tells how readily two partners part at equilibrium) was 16.5 µM and the analyte:CA intensity ratio relative to CPSF6-AF488 is 5 fold.
On to “Full-length GFP-CPSF6 (isoform 2; cell-free expressed, N-terminal GFP tag) (natural protein)”, for which the fold increase in the brightness parameter compared to monomeric GFP in assay [2] is 4 fold and 8 fold. Moreover, the fold increase in the brightness parameter in the presence of capsid in assay [3] was 10 fold.
